Measured values from US20240076343A1.

Tests used:
[1] = target: recombinant His-tagged cynomolgus PD-1 (Acro Biosystems) (cynomolgus) (UniProt B0LAJ3); assay: SPR Carterra LSA
[2] = target: recombinant His-tagged human PD-1 (Acro Biosystems) (human) (UniProt Q15116); assay: SPR Carterra LSA
Sequence of recombinant His-tagged human PD-1 (Acro Biosystems) (human) (Q15116 25-167 limits assumed): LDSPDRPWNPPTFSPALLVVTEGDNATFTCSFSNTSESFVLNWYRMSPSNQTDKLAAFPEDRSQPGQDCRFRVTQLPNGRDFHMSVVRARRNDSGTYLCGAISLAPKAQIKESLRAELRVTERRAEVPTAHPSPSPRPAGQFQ

Sequence of recombinant His-tagged cynomolgus PD-1 (Acro Biosystems) (cynomolgus) (B0LAJ3 entry or part of it limits assumed): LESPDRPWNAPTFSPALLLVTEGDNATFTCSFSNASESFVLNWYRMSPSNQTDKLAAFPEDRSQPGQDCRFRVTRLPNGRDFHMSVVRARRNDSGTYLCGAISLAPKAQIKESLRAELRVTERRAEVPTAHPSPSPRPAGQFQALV

Row | Substance | Kd [1] [nM] | koff [1] [s⁻¹] | kon [1] [M⁻¹ s⁻¹] | Kd [2] [nM] | koff [2] [s⁻¹] | kon [2] [M⁻¹ s⁻¹]
1 | Anti-hPD-1 clone J105-mIgG1 (antibody) | 1300 | 0.066 | 50000 | 86 | 0.0053 | 62000
2 | KEYTRUDA ® (pembrolizumab) (antibody) | 0.575 |  |  |  |  | 

The remaining substances from weak to strong by Kd [1], led by results:

Row | Kd [1] [nM] | koff [1] [s⁻¹] | kon [1] [M⁻¹ s⁻¹] | Kd [2] [nM] | koff [2] [s⁻¹] | kon [2] [M⁻¹ s⁻¹] | Substance
3 | 891 | 0.12 | 130000 | 10 | 0.0014 | 130000 | Anti-PD-1 clone MIH4 mIgG1 (antibody)
4 | 85 | 0.0073 | 86000 | 19 | 0.0022 | 110000 | Anti-hPD-1 clone EH12.2H7-mIgG1 (antibody)
5 | 6.4 |  |  |  |  |  | OPDIVO ® (nivolumab) (antibody)
